# Measurements as given in US20150197561A1 (ONCOMED PHARMACEUTICALS, published 2015).
# Changes are numbered by the printed parent chain. Like-named read-outs stand apart in the source and are kept apart here.
# B1: Fab 64R7 (Fab, V domains shown)
# VH: QVQLVESGGGVVQPGRSLRLSCAASGFTFSSYAMHWVRQAPGKGLEWVAVISYDGSNKYYADSVKGRFTISRDNSKNTLYLQMNSLRAEDTAVYYCARDKYDIPDAFDIWGQGTLVTVSS
# VL: DIRMTQSPSSLSASVGDRVTITCRASQGISNDLAWYQQKPGKVPRLLIYATSTLQSGVPSRFSGSGSATDFTLTISSLQPEDVATYYCQQSYNAPITFGQGTRLEIK
# notes: Fab from a human Fab phage library; also called 64R7 Fab
# B2: antibody 133R0201 (antibody, V domains shown)
# VH: QVQLVESGGGVVQPGRSLRLSCAASGFTFSSYAMHWVRQAPGKGLEWVAAIYPDSSNKYYADSVKGRFTISRDNSKNTLYLQMNSLRAEDTAVYYCARDKYDIPDAFDIWGQGTLVTVS
# VL: B1 VL
# B3: 64R7 IgG2 antibody (antibody, V domains shown)
# VH: B1 VH
# VL: DIRMTQSPSSLSASVGDRVTITCRASQGISNDLAWYQQKPGKVPRLLIYATSTLQSGVPSRFSGSGSATDFTLTISSLQPEDVATYYCQQSYNAPITFGQGTRLEIKR
# notes: Human IgG2 / kappa, expressed in CHO cells; also called antibody 64R7; ATCC PTA-10470
# B4: antibody 133R0203 (antibody, V domains shown)
# VH: B2 VH with Y52S, D54E, S55A
# VL: B1 VL
# B5: antibody 133R0205 (antibody, V domains shown)
# VH: B2 VH with D54A
# VL: B1 VL
# B6: antibody 64M51 (antibody, mouse IgG1, kappa, V domains shown)
# VH: QVQLKQSGAELVRPGTSVKLSCKTSGYIFTSYWIHWVKQRSGQGLEWIARIYPGIGSTYYNEKFKDKATLTADKSSSTAYMQLSSLKSEDSAVYFCAKNGGFFDYWGQGTTLTVSS
# VL: DIVLTQSPASLAVSLGQRATISCRASESVDSYGNSFMHWYQQKPGQPPKLLIYRASNLESGIPARFSGSGSRTDFTLTINPVEADDVATYYCQQSNEDPWTFGGGTKLEIKR
# notes: Mouse hybridoma monoclonal raised against mouse Jagged1 ECD-His; also called anti-Jagged 64M51; ATCC PTA-10468
# B7: 64R1B IgG2 antibody (antibody, V domains shown)
# VH: QVQLQESGPGLVKPSGTLSLTCTVSGDSISSSNWWSWVRQPPGQGLEWIGEIFHGENTNYNPSLKSRVTISVDKSKNQISLNLTSATAADTAVYYCARNPGIGAAKFDSWGQGTLVTVSS
# VL: DIVMTQTPLSLSVTPGQPASISCKSSQSLLHSDGKTYLYWYLQKPGQPPQLLIYEVSNRFSGVPDRFSGSGSGTDFTLKISRVEAEDVGVYYCMQHIDFPFTFGQGTKLEIKR
# notes: Human IgG2 / kappa, expressed in CHO cells; also called antibody 64R1B; ATCC PTA-10469
# How the values were obtained:
# [1] = molecular target: T1, human Jagged1-Fc (extracellular domain of human Jagged1 fused to human Fc) (human, UniProt P78504 34-1067); test: phage display output screened by ELISA on recombinant human Jagged1 ECD-Fc; 64R7 named as one of the Fabs in paragraph 226
# T1 construct: also called hJag1; human Jagged1 ECD-Fc; not shown: human Fc
# Description: Phage display was used to identify specific Fabs that bind to the extracellular domain of human Jagged1. 2×10¹³ Fab displaying phage particles from a human Fab phage library were incubated with passively immobilized recombinant human Jagged1 ECD protein fused with a human Fc domain. The non-binding phage were washed off, phage bound to the Jagged1 protein were eluted with 100 mM glycine, […] pH2.2 and the elutant was neutralized with 1/10 volume of 2M Tris base. The eluted output phage were used to infect TG1 F+ bacteria and rescued with helper phage. The output of rescued round one served as the starting point for further selection rounds. The selections were continued to round 3, and then the output was screened in ELISA for Fabs specifically binding to recombinant human Jagged1 ECD-Fc protein. Several Fabs that specifically bound to human Jagged1 were identified.
# [2] = molecular target: T2, mouse Jagged2-Fc (extracellular domain of mouse Jagged2 fused to human Fc) (mouse, UniProt Q9QYE5 24-1082); test: SPR, Biacore 2000; Jagged protein amine-coupled to CM5 chip, antibody injected 100-1.0 nM, global fit
# T2 construct: extracellular domain; also called mJag2; not shown: human Fc
# Description: (§1) The KDs of antibodies 133R0201, 133R0203 and 133R0205 were determined using a Biacore 2000 system from Biacore Lifescience (GE Healthcare) and compared to K, of antibody 64R7. As described above in Example 4, recombinant Jagged proteins human Jagged1-Fc (hJag1), mouse Jagged1-His (mJag1), human Jagged2-Fc (hJag2) and mouse Jagged2-Fc (mJag2) were immobilized on a CM5 chip using standard amine-based chemistry (NHS/EDC). Antibodies were serially diluted in 2-fold increments from 100 to 1.0 nM in HBS-P (0.01M HEPES pH7.4, 0.15M NaCl, 0.005% v/v Surfactant P20) and were injected over the chip surface. Kinetic data were collected over time and were fit using the simultaneous global fit equation to yield affinity constants (K, values) for each antibody (Table 5).
# [3] = molecular target: T3, human Jagged2-Fc (extracellular domain of human Jagged2 fused to human Fc) (human, UniProt Q9Y219 27-1080); test: as above
# T3 construct: also called hJag2; not shown: human Fc
# Description: as §1
# [4] = molecular target: T4, mouse Jagged1-His (extracellular domain of mouse Jagged1, aa 1-1060, with histidine tag) (mouse, UniProt Q9QXX0 34-1060); test: as above
# T4 construct: made in insect cells; also called mJag1; Mouse Jagged 1 ECD His-tagged
# Description: as §1
# [5] = molecular target: T1, human Jagged1-Fc (extracellular domain …); test: as above
# Description: as §1
# [6] = molecular target: T2, mouse Jagged2-Fc (extracellular domain …); test: as above; remark: listed apart in the source
# Description: as §1, with “of 64M51, 64R7 and 64R1B” for “of”, “antibodies” for “antibodies 133R0201, 133R0203 and 133R0205”, “Healthcare). Recombinant” for “Healthcare) and compared to K, of antibody 64R7. As described above in Example 4, recombinant”, “(KD” for “(K,”, “3).” for “5).”
# [7] = molecular target: T3, human Jagged2-Fc (extracellular domain …); test: as above; remark: listed apart in the source
# Description: as §1, with “of 64M51, 64R7 and 64R1B” for “of”, “antibodies” for “antibodies 133R0201, 133R0203 and 133R0205”, “Healthcare). Recombinant” for “Healthcare) and compared to K, of antibody 64R7. As described above in Example 4, recombinant”, “(KD” for “(K,”, “3).” for “5).”
# [8] = molecular target: T4, mouse Jagged1-His (extracellular domain …); test: as above; remark: listed apart in the source
# Description: as §1, with “of 64M51, 64R7 and 64R1B” for “of”, “antibodies” for “antibodies 133R0201, 133R0203 and 133R0205”, “Healthcare). Recombinant” for “Healthcare) and compared to K, of antibody 64R7. As described above in Example 4, recombinant”, “(KD” for “(K,”, “3).” for “5).”
# [9] = molecular target: T1, human Jagged1-Fc (extracellular domain …); test: as above; remark: listed apart in the source
# Description: as §1, with “of 64M51, 64R7 and 64R1B” for “of”, “antibodies” for “antibodies 133R0201, 133R0203 and 133R0205”, “Healthcare). Recombinant” for “Healthcare) and compared to K, of antibody 64R7. As described above in Example 4, recombinant”, “(KD” for “(K,”, “3).” for “5).”
# [10] = molecular target: T1, human Jagged1-Fc (extracellular domain …); test: SPR, Biacore 2000; Jagged protein amine-coupled to CM5 chip, antibody injected 100-1.0 nM, global fit; Example 13 run (Table 5), compared with 133R0201, 133R0203, 133R0205; separate experiment from Table 3
# Description: as §1
# [11] = molecular target: T2, mouse Jagged2-Fc (extracellular domain …); test: SPR, Biacore 2000; Jagged protein on CM5 chip, antibody injected
# Description: as §1, with “of 64M51, 64R7 and 64R1B” for “of”, “antibodies” for “antibodies 133R0201, 133R0203 and 133R0205”, “Healthcare). Recombinant” for “Healthcare) and compared to K, of antibody 64R7. As described above in Example 4, recombinant”, “(KD” for “(K,”, “3).” for “5).”
# [12] = molecular target: T3, human Jagged2-Fc (extracellular domain …); test: as above
# Description: as §1, with “of 64M51, 64R7 and 64R1B” for “of”, “antibodies” for “antibodies 133R0201, 133R0203 and 133R0205”, “Healthcare). Recombinant” for “Healthcare) and compared to K, of antibody 64R7. As described above in Example 4, recombinant”, “(KD” for “(K,”, “3).” for “5).”
# [13] = molecular target: T5, human Jagged2, full-length, expressed on transfected cells (human, UniProt Q9Y219 24-1238); test: flow cytometry on transfected HEK293 cells
# T5 construct: Full-length cDNA transfected into HEK293 cells (FACS) or PC3 cells (two cell population reporter assay); also called hJagged2; hJag2
# [14] = molecular target: T6, mouse Jagged2 expressed on HEK293 cells (mouse, UniProt Q9QYE5 24-1247); test: flow cytometry on transfected HEK293 cells
# T6 construct: whole, on cells
# T6 sequence (Q9QYE5 24-1247): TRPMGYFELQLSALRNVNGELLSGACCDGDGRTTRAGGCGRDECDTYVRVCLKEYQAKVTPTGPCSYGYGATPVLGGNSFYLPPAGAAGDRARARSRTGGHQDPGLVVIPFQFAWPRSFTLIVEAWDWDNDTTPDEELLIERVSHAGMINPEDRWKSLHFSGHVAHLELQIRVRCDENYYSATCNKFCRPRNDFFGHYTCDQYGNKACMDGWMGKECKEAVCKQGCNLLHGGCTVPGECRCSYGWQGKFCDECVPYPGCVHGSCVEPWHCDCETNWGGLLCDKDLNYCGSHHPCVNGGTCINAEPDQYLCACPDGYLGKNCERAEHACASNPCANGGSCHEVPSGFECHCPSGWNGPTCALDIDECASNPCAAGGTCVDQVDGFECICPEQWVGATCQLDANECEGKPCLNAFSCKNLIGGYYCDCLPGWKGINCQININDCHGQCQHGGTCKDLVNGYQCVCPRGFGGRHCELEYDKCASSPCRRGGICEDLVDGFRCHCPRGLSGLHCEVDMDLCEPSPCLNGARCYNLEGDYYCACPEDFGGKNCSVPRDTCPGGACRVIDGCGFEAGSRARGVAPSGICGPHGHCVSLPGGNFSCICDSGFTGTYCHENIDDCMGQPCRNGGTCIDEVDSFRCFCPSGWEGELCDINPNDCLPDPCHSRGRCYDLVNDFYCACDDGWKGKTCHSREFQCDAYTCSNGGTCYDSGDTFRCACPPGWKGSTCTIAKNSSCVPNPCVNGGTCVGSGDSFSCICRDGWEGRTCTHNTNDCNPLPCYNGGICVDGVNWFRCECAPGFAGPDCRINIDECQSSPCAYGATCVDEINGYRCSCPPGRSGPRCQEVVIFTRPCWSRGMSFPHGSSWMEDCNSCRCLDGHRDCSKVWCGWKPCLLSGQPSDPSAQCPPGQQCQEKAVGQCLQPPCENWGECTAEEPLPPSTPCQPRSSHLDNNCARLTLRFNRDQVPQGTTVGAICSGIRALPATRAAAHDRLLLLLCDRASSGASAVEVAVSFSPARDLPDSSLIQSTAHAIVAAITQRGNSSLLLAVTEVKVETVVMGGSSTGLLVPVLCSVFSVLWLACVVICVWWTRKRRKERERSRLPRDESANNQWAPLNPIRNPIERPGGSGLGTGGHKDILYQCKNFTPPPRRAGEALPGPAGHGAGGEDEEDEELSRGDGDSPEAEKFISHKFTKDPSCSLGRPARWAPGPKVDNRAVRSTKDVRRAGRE
# T3 sequence (Q9Y219 27-1080 E501K): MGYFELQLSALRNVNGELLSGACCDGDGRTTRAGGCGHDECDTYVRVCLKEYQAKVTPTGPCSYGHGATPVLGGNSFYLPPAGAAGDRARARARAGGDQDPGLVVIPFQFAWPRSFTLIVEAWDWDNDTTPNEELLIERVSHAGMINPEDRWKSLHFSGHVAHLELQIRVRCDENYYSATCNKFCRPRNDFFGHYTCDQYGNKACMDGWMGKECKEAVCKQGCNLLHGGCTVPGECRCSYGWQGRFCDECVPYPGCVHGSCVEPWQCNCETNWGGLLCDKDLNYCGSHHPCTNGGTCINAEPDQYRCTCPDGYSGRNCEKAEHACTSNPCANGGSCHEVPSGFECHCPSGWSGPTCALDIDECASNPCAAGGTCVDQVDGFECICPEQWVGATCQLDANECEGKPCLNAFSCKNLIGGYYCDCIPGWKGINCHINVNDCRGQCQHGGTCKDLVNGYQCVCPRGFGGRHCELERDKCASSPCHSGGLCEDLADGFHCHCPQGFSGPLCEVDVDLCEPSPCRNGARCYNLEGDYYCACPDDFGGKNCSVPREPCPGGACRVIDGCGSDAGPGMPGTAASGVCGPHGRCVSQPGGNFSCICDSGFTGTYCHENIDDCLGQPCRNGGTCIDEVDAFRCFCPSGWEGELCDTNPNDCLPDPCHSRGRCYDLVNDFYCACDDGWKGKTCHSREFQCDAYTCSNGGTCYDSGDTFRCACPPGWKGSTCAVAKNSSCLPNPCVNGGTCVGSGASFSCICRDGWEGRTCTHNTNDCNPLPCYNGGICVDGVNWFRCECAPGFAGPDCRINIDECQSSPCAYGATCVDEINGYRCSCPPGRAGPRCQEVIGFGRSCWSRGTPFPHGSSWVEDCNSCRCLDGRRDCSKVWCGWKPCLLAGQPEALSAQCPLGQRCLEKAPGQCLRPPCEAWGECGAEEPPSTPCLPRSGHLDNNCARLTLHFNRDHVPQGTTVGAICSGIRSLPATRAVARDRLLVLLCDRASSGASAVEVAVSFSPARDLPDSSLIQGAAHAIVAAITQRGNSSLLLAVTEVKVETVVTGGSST
# T2 sequence (Q9QYE5 24-1082): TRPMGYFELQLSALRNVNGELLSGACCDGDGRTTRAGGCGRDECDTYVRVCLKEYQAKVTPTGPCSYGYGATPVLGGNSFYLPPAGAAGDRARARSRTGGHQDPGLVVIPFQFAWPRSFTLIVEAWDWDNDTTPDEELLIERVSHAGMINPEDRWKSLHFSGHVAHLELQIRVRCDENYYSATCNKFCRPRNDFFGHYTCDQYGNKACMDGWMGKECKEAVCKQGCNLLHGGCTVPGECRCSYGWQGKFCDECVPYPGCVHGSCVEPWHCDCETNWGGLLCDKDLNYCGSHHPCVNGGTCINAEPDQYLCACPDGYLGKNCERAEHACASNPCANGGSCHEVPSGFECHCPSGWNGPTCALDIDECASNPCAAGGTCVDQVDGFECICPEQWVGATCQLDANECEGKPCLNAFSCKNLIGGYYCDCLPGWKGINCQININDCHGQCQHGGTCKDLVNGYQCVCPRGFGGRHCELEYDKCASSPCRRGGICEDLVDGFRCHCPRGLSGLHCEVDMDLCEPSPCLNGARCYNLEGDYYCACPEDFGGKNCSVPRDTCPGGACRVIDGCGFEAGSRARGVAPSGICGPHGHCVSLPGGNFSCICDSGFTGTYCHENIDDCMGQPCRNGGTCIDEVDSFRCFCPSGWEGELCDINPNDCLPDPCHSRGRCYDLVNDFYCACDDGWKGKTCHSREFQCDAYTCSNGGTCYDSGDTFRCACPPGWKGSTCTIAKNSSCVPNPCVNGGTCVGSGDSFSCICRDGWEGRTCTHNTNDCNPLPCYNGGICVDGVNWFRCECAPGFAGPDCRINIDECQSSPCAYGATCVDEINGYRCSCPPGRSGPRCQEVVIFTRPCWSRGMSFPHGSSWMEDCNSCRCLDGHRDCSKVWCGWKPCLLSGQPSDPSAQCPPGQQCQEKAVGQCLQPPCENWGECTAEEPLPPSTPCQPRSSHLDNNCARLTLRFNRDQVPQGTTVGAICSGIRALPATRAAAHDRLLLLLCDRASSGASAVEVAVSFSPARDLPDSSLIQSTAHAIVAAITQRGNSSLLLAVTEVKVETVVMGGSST
# T5 sequence (Q9Y219 24-1238 E501K limits assumed): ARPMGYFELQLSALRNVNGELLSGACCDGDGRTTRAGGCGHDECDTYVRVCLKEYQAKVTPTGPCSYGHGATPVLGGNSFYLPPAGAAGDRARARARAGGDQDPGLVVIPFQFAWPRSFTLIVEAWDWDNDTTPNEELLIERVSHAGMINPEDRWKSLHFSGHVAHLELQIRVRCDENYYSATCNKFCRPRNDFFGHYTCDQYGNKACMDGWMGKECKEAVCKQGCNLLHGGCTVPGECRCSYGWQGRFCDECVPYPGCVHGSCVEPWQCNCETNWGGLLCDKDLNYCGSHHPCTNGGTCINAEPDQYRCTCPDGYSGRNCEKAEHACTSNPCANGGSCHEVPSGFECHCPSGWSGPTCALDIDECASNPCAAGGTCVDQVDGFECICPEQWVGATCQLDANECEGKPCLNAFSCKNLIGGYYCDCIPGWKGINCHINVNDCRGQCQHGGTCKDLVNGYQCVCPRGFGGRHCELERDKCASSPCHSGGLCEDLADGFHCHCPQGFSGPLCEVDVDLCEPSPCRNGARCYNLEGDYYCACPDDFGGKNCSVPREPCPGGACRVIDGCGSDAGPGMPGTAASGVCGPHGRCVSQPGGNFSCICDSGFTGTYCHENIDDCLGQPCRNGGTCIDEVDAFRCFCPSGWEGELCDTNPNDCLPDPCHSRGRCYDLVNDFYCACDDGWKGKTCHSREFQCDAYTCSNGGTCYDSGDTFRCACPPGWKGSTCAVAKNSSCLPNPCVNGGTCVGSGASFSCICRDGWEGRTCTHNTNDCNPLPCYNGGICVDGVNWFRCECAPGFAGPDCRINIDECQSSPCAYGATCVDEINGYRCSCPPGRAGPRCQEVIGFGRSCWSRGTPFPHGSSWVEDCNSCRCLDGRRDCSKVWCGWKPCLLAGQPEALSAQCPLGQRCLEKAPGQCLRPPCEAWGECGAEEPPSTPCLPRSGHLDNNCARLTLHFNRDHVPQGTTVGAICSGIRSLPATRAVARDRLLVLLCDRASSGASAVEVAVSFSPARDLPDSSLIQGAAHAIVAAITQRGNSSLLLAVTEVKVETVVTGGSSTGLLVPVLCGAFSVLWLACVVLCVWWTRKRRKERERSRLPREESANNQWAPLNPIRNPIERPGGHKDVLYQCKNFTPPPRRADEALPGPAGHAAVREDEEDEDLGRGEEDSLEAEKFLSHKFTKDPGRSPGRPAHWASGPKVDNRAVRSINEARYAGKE
Binder,Kd [2] [nM],Kd [3] [nM],Kd [4] [nM],Kd [5] [nM],Kd [8] [nM],Kd [9] [nM],further results
B1,–,–,–,–,–,–,binding result [1]: binds
B2,3.2,2.9,0.8,0.76,–,–,–
B3,9.6,10,4.8,–,10.5,5.9,Kd [6]: 20.6 nM; Kd [7]: 8.3 nM; Kd [10]: 1.7 nM
B4,3.8,3.7,1.6,1.4,–,–,–
B5,4.8,5.8,1.5,1.2,–,–,–
B6,–,–,–,–,33,30,Kd [6]: 7.9 nM; Kd [7]: 6.2 nM
B7,–,–,–,–,0.82,0.61,binding result [11]: no binding (tested: No binding detected at 100 nM); binding result [12]: no binding (tested: No binding detected at 100 nM); binding result [13]: no binding (tested: 10 µg/ml); binding result [14]: no binding (tested: 10 µg/ml)
